Measured values: article PMC7382241 (2020)
Values joined by “and” are separate entries in the source; they are usually repeats but may differ in a detail not shown here. Identical values can stand only once. One block for each binder: values may come before it.

Molecular target: N-terminal AVI-tagged and biotinylated FKBP12 (human, UniProt P62942 1-108, biotin (biotinylated AVI tag))
Assay: SPR

Sequence of N-terminal AVI-tagged and biotinylated FKBP12 (P62942 whole entry): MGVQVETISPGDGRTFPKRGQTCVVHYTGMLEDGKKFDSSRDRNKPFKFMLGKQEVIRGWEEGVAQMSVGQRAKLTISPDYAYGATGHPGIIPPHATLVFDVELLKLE

- Kd: 37.6 nM and 23.4 nM and 57.7 nM
B1: recombinant CEP250_(29.2) (residues 1,981 to 2,281) (domain or fragment)
chain: EQHLLEQAELSRSLEASTATLQASLDACQAHSRQLEEALRIQEGEIQDQDLRYQEDVQQLQQALAQRDEELRHQQEREQLLEKSLAQRVQENMIQEKQNLGQEREEEEIRGLHQSVRELQLTLAQKEQEILELRETQQRNNLEALPHSHKTSPMEEQSLKLDSLEPRLQRELERLQAALRQTEAREIEWREKAQDLALSLAQTKASVSSLQEVAMFLQASVLERDSEQQRLQDELELTRRALEKERLHSPGATSTAELGSRGEQGVQLGEVSGVEAEPSPDGMEKQSWRQRLEHLQQAVAR

- Kd: 32.5 nM and 32.7 nM and 41.2 nM
B2: CEP250_(11.4) (residues 2,134 to 2,231) (domain or fragment)
chain: MEEQSLKLDSLEPRLQRELERLQAALRQTEAREIEWREKAQDLALSLAQTKASVSSLQEVAMFLQASVLERDSEQQRLQDELELTRRALEKERLHSPG
